These results are taken from IntAct's records for PubMed 29477555.

The chains are these.
B1: Serine protease HTRA3 (Homo sapiens), P83110-1 (parent)
chain: MQARALLLAALAALALAREPPAAPCPARCDVSRCPSPRCPGGYVPDLCNCCLVCAASEGEPCGGPLDSPCGESLECVRGLCRCRWSHAVCGTDGHTYANVCALQAASRRALQLSGTPVRQLQKGACPLGLHQLSSPRYKFNFIADVVEKIAPAVVHIELFLRHPLFGRNVPLSSGSGFIMSEAGLIITNAHVVSSNSAAPGRQQLKVQLQNGDSYEATIKDIDKKSDIATIKIHPKKKLPVLLLGHSADLRPGEFVVAIGSPFALQNTVTTGIVSTAQREGRELGLRDSDMDYIQTDAIINYGNSGGPLVNLDGEVIGINTLKVTAGISFAIPSDRITRFLTEFQDKQIKDWKKRFIGIRMRTITPSLVDELKASNPDFPEVSSGIYVQEVAPNSPSQRGGIQDGDIIVKVNGRPLVDSSELQEAVLTESPLLLEVRRGNDDLLFSIAPEVVM
B2: Serine protease HTRA3 (Homo sapiens), P83110-2 (parent)
chain: MQARALLLAALAALALAREPPAAPCPARCDVSRCPSPRCPGGYVPDLCNCCLVCAASEGEPCGGPLDSPCGESLECVRGLCRCRWSHAVCGTDGHTYANVCALQAASRRALQLSGTPVRQLQKGACPLGLHQLSSPRYKFNFIADVVEKIAPAVVHIELFLRHPLFGRNVPLSSGSGFIMSEAGLIITNAHVVSSNSAAPGRQQLKVQLQNGDSYEATIKDIDKKSDIATIKIHPKKKLPVLLLGHSADLRPGEFVVAIGSPFALQNTVTTGIVSTAQREGRELGLRDSDMDYIQTDAIINYGNSGGPLVNLDGEVIGINTLKVTAGISFAIPSDRITRFLTEFQDKQIKAPSLAVH

The variants in the first test derive from B1. Conditions: with tcpa_human TCP1, P17987.
Target sequence in this assay (P17987 whole entry): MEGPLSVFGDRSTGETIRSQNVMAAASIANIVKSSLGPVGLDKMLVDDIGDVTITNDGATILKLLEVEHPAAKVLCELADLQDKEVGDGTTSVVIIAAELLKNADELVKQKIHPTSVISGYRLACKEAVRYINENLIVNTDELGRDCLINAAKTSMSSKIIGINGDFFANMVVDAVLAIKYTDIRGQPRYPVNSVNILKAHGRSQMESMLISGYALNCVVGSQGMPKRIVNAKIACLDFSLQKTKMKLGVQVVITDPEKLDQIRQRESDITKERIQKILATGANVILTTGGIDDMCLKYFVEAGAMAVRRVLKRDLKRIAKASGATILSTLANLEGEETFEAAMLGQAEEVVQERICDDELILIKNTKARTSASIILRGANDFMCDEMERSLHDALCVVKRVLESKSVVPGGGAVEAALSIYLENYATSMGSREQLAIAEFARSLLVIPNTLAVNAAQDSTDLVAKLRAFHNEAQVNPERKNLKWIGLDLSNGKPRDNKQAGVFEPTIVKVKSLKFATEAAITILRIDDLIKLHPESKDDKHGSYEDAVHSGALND
As for MQARALLLAALAALALAREPPAAPCPARCDVSRCPSPRCPGGYVPDLCNCCLVCAASEGEPCGGPLDSPCGESLECVRGLCRCRWSHAVCGTDGHTYANVCALQAASRRALQLSGTPVRQLQKGACPLGLHQLSSPRYKFNFIADVVEKIAPAVVHIELFLRHPLFGRNVPLSSGSGFIMSEAGLIITNAHVVSSNSAAPGRQQLKVQLQNGDSYEATIKDIDKKSDIATIKIHPKKKLPVLLLGHSADLRPGEFVVAIGSPFALQNTVTTGIVSTAQREGRELGLRDSDMDYIQTDAIINYGNAGGPLVNLDGEVIGINTLKVTAGISFAIPSDRITRFLTEFQDKQIKDWKKRFIGIRMRTITPSLVDELKASNPDFPEVSSGIYVQEVAPNSPSQRGGIQDGDIIVKVNGRPLVDSSELQEAVLTESPLLLEVRRGNDDLLFSIAPEVVM [S305A], the “effect of a mutation on the interaction” value is reported as “decreasing interaction strength”.

In a further test the parent is B2. To be noted: with tcpa_human TCP1, P17987.
Target sequence in this assay (P17987 whole entry): as the sequence (P17987 whole entry) above
As for MQARALLLAALAALALAREPPAAPCPARCDVSRCPSPRCPGGYVPDLCNCCLVCAASEGEPCGGPLDSPCGESLECVRGLCRCRWSHAVCGTDGHTYANVCALQAASRRALQLSGTPVRQLQKGACPLGLHQLSSPRYKFNFIADVVEKIAPAVVHIELFLRHPLFGRNVPLSSGSGFIMSEAGLIITNAHVVSSNSAAPGRQQLKVQLQNGDSYEATIKDIDKKSDIATIKIHPKKKLPVLLLGHSADLRPGEFVVAIGSPFALQNTVTTGIVSTAQREGRELGLRDSDMDYIQTDAIINYGNAGGPLVNLDGEVIGINTLKVTAGISFAIPSDRITRFLTEFQDKQIKAPSLAVH [S305A], the “effect of a mutation on the interaction” value is reported as “decreasing interaction strength”.
